For this series, the target named is T1, RelE (UniProt P0C077 1-95).
T1 sequence: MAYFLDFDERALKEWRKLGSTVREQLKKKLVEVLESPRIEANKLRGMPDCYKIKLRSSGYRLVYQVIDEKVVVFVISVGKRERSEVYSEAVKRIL
Put plainly: intrinsic protein fluorescence.

GGCAAGGAGGUAAAAAUGUAGAAAAACAAU (ssRNA) [unmodified mRNA]: the binding result is “binds”.

These data come from article PMC7260706.
